From patent US20250092143A1 (UNIVERSITY OF SOUTHERN CALIFORNIA, published 2025)

Columns and labels:
[1] = target: T1, αCD3-αEGFR-PD-1-OX40L GEMINI-Exos (human); experiment: flow cytometry on BT-20 cells, anti-HA detection
T1 construct: Engineered exosome from Expi293F cells co-transfected with the αCD3-αEGFR-PDGFR TMD and PD-1-CD9-OX40L constructs; Both fusions sit on the same exosome; also called genetically engineered multifunctional immune-modulating exosomes
Description: BT-20 cells were treated with 100 U/mL IFN-γ (BioLegend) for 2 days to induce expression of PD-L1. […] Briefly, cells (300,000 cells per tube) were stained with 100 μg mL⁻¹ of exosomes for 30 minutes at 4° C. Cells were washed three times with PBS containing 2% FBS and stained with an anti-HA antibody (2-2.2.14, from Thermo Fisher Scientific) for 30 minutes at 4° C. […] Thereafter, cells were washed and resuspended in PBS containing 2% FBS, followed by analysis using a BD Fortessa X20 flow cytometer. Data were processed by FlowJo_V10 software (Tree Star Inc., Ashland, OR).

[2] = target: T1, αCD3-αEGFR-PD-1-OX40L GEMINI-Exos; experiment: assay not named
Description: FIG. 3. […] (A) Immunoblot analysis of purified exosomes. […] Data are shown as mean±SD of duplicates. […] The levels of secreted IL-2 were measured by ELISA.
ELISA analysis of binding of engineered exosomes to ligands and receptors. […] High-binding 96 well plates (Greiner Bio-One, Monroe, NC) were coated with various concentrations of exosomes overnight at room temperature. Following extensive washing with PBST, wells were blocked with PBS containing 1% BSA for 2 hours at room temperature, followed by extensive washing with PBST. Corresponding ligands or receptors ([…]; PD-L1-hFc and PD-L2-hFc from PeproTech, Inc. and OX40-hFc from BioLegend) were added and incubated for 2 hours at room temperature, followed by extensive washing with PBST. Goat anti-human IgG-HRP was subsequently added for 1-hour incubation at room temperature, followed by extensive washing. QuantaBlu fluorogenic peroxidase substrate (Thermo Fisher Scientific, MA) was then added.

Binder | binding result [1] | binding result [2]
PD-L2 on IFN-γ stimulated BT-20 cells (ligand, human, UniProt Q9BQ51 20-273, looked up, whole, on cells; BT-20 cells also carry PD-L1 and EGFR; also called PD-L2^+ BT-20 cells) LFTVTVPKELYIIEHGSNVTLECNFDTGSHVNLGAITASLQKVENDTSPHRERATLLEEQLPLGKASFHIPQVQVRDEGQYQCIIIYGVAWDYKYLTLKVKASYRKINTHILKVPETDEVELTCQATGYPLAEVSWPNVSVPANTSHSRTPEGLYQVTSVLRLKPPPGRNFSCVFWNTHVRELTLASIDLQSQMEPRTHPTWLLHIFIPFCIIAFIFIATVIALRKQLCQKLYSSKDTTKRPVTTTKREVNSAI | binds | 
OX40-hFc (Fc fusion, human, UniProt P43489 29-214, looked up, Bought from BioLegend; also called OX40-Fc; biotinylated OX40-hFc; not shown: human Fc (hFc) of the bought reagent) LHCVGDTYPSNDRCCHECRPGNGMVSRCSRSQNTVCRPCGPGFYNDVVSSKPCKPCTWCNLRSGSERKQLCTATQDTVCRCRAGTQPLDSYKPGVDCAPCPPGHFSPGDNQACKPWTNCTLAGKHTLQPASNSSDAICEDRDPPATQPQETQGPPARPITVQPTEAWPRTSQGPSTRPVEVPGGRA |  | binds
PD-L2-hFc (Fc fusion, human, UniProt Q9BQ51 20-220, looked up, Bought from PeproTech; also called PD-L2-Fc; not shown: human Fc (hFc) of the bought reagent) LFTVTVPKELYIIEHGSNVTLECNFDTGSHVNLGAITASLQKVENDTSPHRERATLLEEQLPLGKASFHIPQVQVRDEGQYQCIIIYGVAWDYKYLTLKVKASYRKINTHILKVPETDEVELTCQATGYPLAEVSWPNVSVPANTSHSRTPEGLYQVTSVLRLKPPPGRNFSCVFWNTHVRELTLASIDLQSQMEPRTHPT |  | binds
